Experimental data reported in the domain aggregation screens of Martell et al. (2025).

Assay: soluble fraction after stress (log2 fold change); higher = more stays soluble; pooled small domains, quantitative proteomics
Settings: stress: pH 4
Procedure, shortened: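 How much of each domain stays soluble after acid stress, expressed as a fold change, is used to gauge aggregation propensity. Pooled custom libraries of small domains underwent pH 4 stress before high-throughput quantitative proteomics. A higher log2 value means more of the domain stayed soluble.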

Sequence | soluble fraction (log2)
HMGETISVPAVRSLAYDRAVDMLTAEGLKGIVADSVYDNRTQPGTVIEQNPKAGTIVKEGREVYLTINA | 0.0278
HMINLGDLEVGHTYHTRMPILQNDLKYSHKSPIQIVAEHSIVYGVRVYIGFLNEHRVLVTADDV | -0.269
HMTGDIGAEAAKAAALAHAGVTESQTAKMKVDRDWDDGRLEYDVEFDVGRTEYEYTIDGVTGAVLEYEQDI | 0.0208
HMNRLEFLQGLKAELEGRVPHSIIQENLRYYDSYISDEAAKGQSEEDVVESLGGPRIIARTIVDAA | -0.52
HMSILPGVYRHYKGNHYQVFYLAKHSETLEDMVVYQALYGERGIWVRPASMWNETVDDQGKQVKRFTYI | -1.22
HMTGWINVDKNWYYMNNSGSMARGMINVNNVSYYLDENGKMLSNTTVNVNGTDYRIDASGAMSQI | -0.153
HMFETLVLALAQAWPAERGPVEALQFEGGRLSLQRSGFADEQVEALRQRLSSEGWTLQTEQGRLILNKAG | -1.11
HMVPVVGTTIPHEFIGKFGSARVMLKPAVEGSGVIAGGSARAVLELAGYKDIKTKVLGTNNPRNVVYATMN | 0.196
HMNMPDVTVEWVKEQQAKFGLTDSDLAKSVNIDNANLARIFNQRGLTKIHKALFYYFFRAYGLQ | -1.1
HMKFPNVGENLRLLRQEMGISLDKASKMTGVSKAMLGQIERGESSPTVSTLWKISSGFKINFTTLLSE | 0.224
HMFTKYSPDFKLSVILDMRKNNLGYGEVVRKYWNLDSYKESDRHRSQVRLWERIFLEEGVEGFM | -1.77
HMDETELLLQKAIATLPDKQRVVFNLKYFDEMKYEEMSELLETSVGALKASYHLAVKKIEQFFHDA | -0.241
HMIMTEKEKKLLNRYIMHDTIHKLYHEQNKSMRWIADNLGINFRTVQKYLDMDSGEFQKYSESISNR | -0.141
HMTPEPVREALTFQEGRVFALAAKNMTNAEIAQSLSLKLKTVENYMSIIYQKLALKNRYELLVYARKSGV | -0.117
HMLKSGSAVAQARDVILEKGVPVHINEILDALGKGDTREAKASLTSSLAAYVRRGEIFTRPAPNTFGLVEL | -0.378
HMSERVVVPDLTGKDLVAAQSELREISLAGREEGPGDKVRRQFPVAGVKVPKDTVVILYTED | 0.117
HMEQFDFTILRELRKRAGLSIGEVSAESGVSAAVISKLERNRTRAELDTLYRLARVFGITAAELLNLAEA | -1.76
HMIMTIYEYIARNNPTGAKRVIESFGYVVTQPKKMGDNLRMLVAQEGEPALKAVVDLHPDKDLILEV | -1.93
HMGMAQELMESRLTAVFTSGKDQLAVLQRKDGSTLKLGADSKPWRIESFDGRKAVFVSADQQRVERLL | -0.599
HMSINTIIAKNLNRLRNERNLSLGQLAELSGVSKVMLSQIEKGDSNPTVNTIWKIASGLNVPYTAILDQP | 0.22
HMNNQILYERLRDLRERNHFTQAFVSSKLNIGRATYSNYERGKRTPSLDVIMDLASFYKVPFTYF | 0.113
HMQAGPEDIIRAKLKTAMPEAQIISIRPTPAGLYQVNAKGYESVFVTADGRYLFQGDLLEIQGDRIVNL | -0.714
HMLSTQEYIKKNIENGSWKVGEKIPSENNLTEILGVSRASIRVAIQQFIALDVLNSIHGKGTFVKTNNIMG | 0.207
HMKSTPMYATAIVNIRSKAGTDSEILGKLNPSEEISVISSENGWSKVSYNGKEAYISSNYLSNAKP | 0.22
HMFDPTDLPEKQLMVYEIIKSNNGINMTNIASLLGFNKTTVDNAIRALKKKEIVVFKGTNRSGGYFNT | 0.193
HMSQSIGQEKALSIALADAGVQKENALGLEVKGEYDDGQLLYEVEFRAGGVEYEYEVRASDGRIVKAERD | 0.0913

Sequence | soluble fraction (log2)
HMNGVSNETLIQKSALYEELNQPDLALKMINTALKKDSVNIEILHRLVTLLMSQEKNEEAILYNQKIIDH | -0.0993
HMTYSSESVRYRIKSLIDNETIDEILSDDKIVNILKSQGIDVARRTVAKYREAMGLASSIQRRREKKSA | -0.0241
HMKDANIQIGKRLREARLNMNLEKSEIADVLGVTVEHYRKLEAGVMGISVDKVLTLYHKYGIDPTYLITG | -0.712
HMHPEPDPVLFIDGKEYPYDKLSELDETRVQSMTILPKKSAVKKYGDKYANRSIMEITLKKEN | 0.22
HMIALKNLREEKRMTQAELSKDLEISPSAIGMYEQGRRVPDVSTLKKISAYFNVSIDYLLGNSTSKDI | -0.0244
HMVRGNLAEELLKLREEEGISFQEAGARSGIARSTISQVVNQGLRLKPNQEESLWRVIEEVRGVKER | -0.0263
HMAKIDSRKALIDQLTTTFTRAQLEELITKNELSTDARFFLSQWNAKGWIRKTAKNVYEKLR | 0.0107
HMTELLTPKQRQVFELALREGYYDVPRRTSITEMARLLGVAKSTLSAQMHRMEATVMSTFAEEIRKQ | 0.0506
HMYELSDTEWKIIEQVGLGASNKEIAASLHFSEGTIRNYLSVILDKLSLRDRTQLAILYVKMN | -0.122
HMDIEHREMKLQKLVITADSPLVGKTLKESNVRQRYNFMVVGVEEGQKNLTMINPNRRFEVGDIVWVVGEE | -0.204
HMQDTQAEEGETLLDALRRIHPESSTGTLRRMLTQGRVQLDGDSVHAAKTVLSAGQRVEVVAR | 0.088
HMTTQIPEEVQKRVNQFYEALDEEDYGEAKQILEELEKATAPDHPTLIQMRTRYEFDTMELR | -1.1
HMESIPDELLEAFKQDPAFKQAFYALTAGRQRGYIIHFSQPKQSQTRIGRIEKYKEQIFNGIGLN | -0.125
HMVTGSIYERKGIYYAIVSYYVDGRRKQKSVSTGLSVKGNKRRALEFLENLKRTYETKESMENMD | ≥ 0.43
HMQRSVKNNDTVQVHYTGKLTNGQIFDSSIDKQPLEFQLGQGQIIPGFEKGLIDMTVSEKKTITIPEAEAY | 0.133
HMESPLEQLTNRELQTLQMLGKGLSTKQIAAQLNLSVKTVETYRENLKRKLNLDSGSELIRYAIHRSNE | -0.0124
HMEGSLQEDKVKEYQDRFKEELSNDLNTANSITVLYDLIKDDTLNGTTKRYLIEDFDKILSLDLIKE | -0.854
HMNGAVAEQARKQLMAALKASEFIAEEKLDEWLDALALPEDKRTAIVDAVDELDYEEAISELEN | 0.0531
HMAVSDAAEEYGKAGTPLVILAGKEYGSGSSRDWAAKGPYLQGVRAVLAESYERIHRSNLVGMGIVPLTYK | 0.109
HMEAEMLYQVKVKITNLVIRSGAGAIYPIVKRYASGVLPIYEEKNGYGKIAVGQWISLSPEFVERVD | -0.0106
HMESPLNPTDVRRAAMDLLARREHGVEELRLKLKRRFGREEDFETIATEQLQRLVDEDLLSDTRF | -0.948
HMLPLGSNEYETAVIKHLASGVQDADEIQRLTGIDQTSLNTALTMLELAGTIRPLGNNHWTL | 0.22
HMHTPSGALLSAIEKEWGSFDNFKKEFTTAATSLFGSGWVWLAKDKKGKLYILSENNAGNPITKGYTPILG | -0.432
HMDNWYIAFNSFLSQNKLTAKNVSELTGLSKPTIDSYKQGKRKPTDENMQIIKDKLGFNISEILYN | -0.576
HMDGISANAVKALIESLIAGEDKRKPLSDQAMSDRLALQGIVLARRTVAKYREELNFPPAHQRKQK | 0.22
HMIDYTDTSAVKDSAAVAGRVREMINEGVPIADVNAFIRSASENGLISDDSARRLRYMNDSR | ≥ 0.43

Sequence | soluble fraction (log2)
HMTTGTVKWFNDAKGFGFITPDDRSVDVFVHYSNIVGQSGRRTLMEGERVEYEAIEGPKGPQATDVARA | -1.06
HMTRQPSAKEHAVLTAVKEGLRRDGRAPTVRALADMTGAASTSTVQRRISALIDLGLLRRTDGTLEVVE | 0.202
HMSKQQVRSILDDIPNIGETRRKALMRQFQSLEKIREASVGQLREVDGMNEKAAQSVYQFFHK | 0.108
HMVMVVDVLKALSNNSSDKFFNTSISNAIKAQEDSQEDFVTLFGIEYEKLSPNNGLAVIFTSQ | -0.816
HMNLAISAYQQLKSDIIRGVYAPGEKLLMSRLKVRYGLGIGPMREALSQLVSEHLVTAASQRGYRVAGM | 0.129
HMEREQNIEHGRAIVERELKRLGLSDVYTIADIATALRHDDVDQFLAKIGFGDIQSTQIGGAIAALQQR | -0.328
HMGGLSAEQKNGIQSVLKNFDPKNLTSADAKSITSEFKKLGVQPGKDLETTMAASGFDAKEVGRLAF | 0.177
HMNQSKYQTIADELKSKILSGEYPENTTIPPELQLQKDYQVSRHTIRQAIALLANEGFLRKEKGSGTYVDV | 0.254
HMGEEIRTWTDAQGRKIEARMSMLDGDQVLLELKDGRKIPYPLAKLSADDAHYARHFASASASD | -0.00959
HMAMDYEGFKKSVYALTSIDLNAYKERQMKRRIDTLIAKNKYNGYEDYTAAIKKDKALFEEFVNYLTIN | -0.521
HMTGDISRALDQLPADMRTVLILYALEKQRYEDIAQITGVSVGTVKSRLNRARQKLAAILANQREQNE | -0.101
HMIGRIKGQLIEKKSDSVVIDVHGIGYVVYVTEKTARSLTLGDQSRDISLYSELLVKEDLLQLVGFI | -0.0095
HMKSISMSKLRHLLQLYVQGRSKKLISEQTGIARNTLKKYIKEFSEAGLSLEALLALSDKELEDLFVK | 0.282
HMNQIDDADRKRVVDEVAGQFSSMSLTEMRSDREKLLSRIIPQVQTTLNRLGLQTIDVEGIAREVIARVG | -0.288
HMDGVSLLFKLMETLPEQQKTILHLRDVEQLEFAEIAKITNTSQANVRVALSRARKKIKDLLLKQY | -1.31
HMGVSLKEIQENLSLIDDAAQKLASGQGTVDDAVGMGNAGKDIYDNIEGYVSSPKEFINGVLSSV | -0.823
HMGITRQQALQQINQSASPKKILNASLGKRGSEFVWDIGYLSKSGKLNYVTYSFRSGEQLNAIKN | -0.504
HMSNEKVVKFAQELLVDEERSAISPALISAKIDQVLMFKPAWNEGLDRDAVVNELVRRFSIW | -1.19
HMKTLDATQRLKLNGEGIIVFNFGKYVDQPVVEIFKKERGYFAWMMSKDFSQQVKNIITKIHNEEILGK | -0.344
HMLAIKKGGIFAILGPNGSGKSTFSKVLAGHPAYTVVDGDIFFKGLSILDLEPEERSHLGIFLAFQ | -0.151
HMTRQEFIRKLQEALNGKLDAATIQDHLKFYDDYIIEEMRKGKSEQEVLELLGDPWAIAKTIVDAS | -0.44
HMKYKWLAGQLRRELLENGGKKGYKLPTELELARRYQLSRQTVRRALQLLEEEGLILRRQGSGAYATGKPP | 0.0629
HMAKRDEIEAELPRFVATITQELAASRDVLSMIEHYKQNSGPVFSAELDVLTADMRSGSYEAALTRFEARF | -0.0581
HMKIVQDIAFSDFLNEVEKDNVLDVNIKGDLINGNLADGRKFKTYTPYDPNLIEKLSNKNVTINVEPYN | 0.00986
